From patent CN116926038A, “一种TrkA的抗原表位肽及其应用” (Guangdong HEC Pharmaceutical Co Ltd, priority 2022, dated 2023)
Ends that are not written are not given here.

Legend:
Human-TrKB = molecular target: T1, Human-TrKB (Homo sapiens, UniProt Q16620); assay: ELISA binding of serum of peptide-immunised mice to Human-TrKB (Example 18); conditions: serum dilutions 1:50 to 1:6400; blank serum as control
T1 construct: purchased Sino Biological 10047-H08H

Human-TrKC = molecular target: T2, Human-TrKC (Homo sapiens, UniProt Q16288); assay: ELISA binding of serum of peptide-immunised mice to Human-TrKC (Example 18); conditions: serum dilutions 1:50 to 1:6400; blank serum as control
T2 construct: purchased Sino Biological 10048-H08H
T2 sequence (Q16288 32-429 limits assumed): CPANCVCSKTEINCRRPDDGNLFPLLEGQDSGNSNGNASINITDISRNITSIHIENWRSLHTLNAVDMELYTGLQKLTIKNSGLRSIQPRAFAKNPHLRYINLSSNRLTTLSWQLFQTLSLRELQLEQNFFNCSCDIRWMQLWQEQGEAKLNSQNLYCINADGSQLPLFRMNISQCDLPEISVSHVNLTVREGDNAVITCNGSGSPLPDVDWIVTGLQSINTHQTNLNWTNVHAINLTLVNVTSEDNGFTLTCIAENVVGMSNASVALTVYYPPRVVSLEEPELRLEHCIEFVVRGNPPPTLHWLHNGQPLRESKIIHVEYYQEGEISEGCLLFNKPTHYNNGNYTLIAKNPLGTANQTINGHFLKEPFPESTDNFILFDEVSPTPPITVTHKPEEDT

Human-P75 = molecular target: T3, Human-P75 (Homo sapiens, UniProt P08138); assay: ELISA binding of serum of peptide-immunised mice to Human-P75 (Example 18); conditions: serum dilutions 1:50 to 1:6400; blank serum as control
T3 construct: purchased Sino Biological 13184-H08H
T3 sequence (P08138 29-250 limits assumed): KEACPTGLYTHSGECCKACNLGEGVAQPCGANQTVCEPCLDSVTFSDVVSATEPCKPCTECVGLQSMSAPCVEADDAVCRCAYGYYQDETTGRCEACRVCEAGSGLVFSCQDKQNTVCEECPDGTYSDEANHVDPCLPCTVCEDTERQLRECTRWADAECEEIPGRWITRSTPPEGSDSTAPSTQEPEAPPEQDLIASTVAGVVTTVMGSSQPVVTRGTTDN

[1] = molecular target: binding of Human-TrKA receptor and its ligand Human-NGF (Human-TrKA受体与其配体Human-NGF结合) (Homo sapiens, UniProt P04629); assay: ELISA blocking of Human-TrKA/Human-NGF binding by serum of peptide-immunised rabbits (Example 19); conditions: 300 μg each time
Sequence of binding of Human-TrKA receptor and its ligand Human-NGF (Human-TrKA受体与其配体Human-NGF结合) (P04629 33-796): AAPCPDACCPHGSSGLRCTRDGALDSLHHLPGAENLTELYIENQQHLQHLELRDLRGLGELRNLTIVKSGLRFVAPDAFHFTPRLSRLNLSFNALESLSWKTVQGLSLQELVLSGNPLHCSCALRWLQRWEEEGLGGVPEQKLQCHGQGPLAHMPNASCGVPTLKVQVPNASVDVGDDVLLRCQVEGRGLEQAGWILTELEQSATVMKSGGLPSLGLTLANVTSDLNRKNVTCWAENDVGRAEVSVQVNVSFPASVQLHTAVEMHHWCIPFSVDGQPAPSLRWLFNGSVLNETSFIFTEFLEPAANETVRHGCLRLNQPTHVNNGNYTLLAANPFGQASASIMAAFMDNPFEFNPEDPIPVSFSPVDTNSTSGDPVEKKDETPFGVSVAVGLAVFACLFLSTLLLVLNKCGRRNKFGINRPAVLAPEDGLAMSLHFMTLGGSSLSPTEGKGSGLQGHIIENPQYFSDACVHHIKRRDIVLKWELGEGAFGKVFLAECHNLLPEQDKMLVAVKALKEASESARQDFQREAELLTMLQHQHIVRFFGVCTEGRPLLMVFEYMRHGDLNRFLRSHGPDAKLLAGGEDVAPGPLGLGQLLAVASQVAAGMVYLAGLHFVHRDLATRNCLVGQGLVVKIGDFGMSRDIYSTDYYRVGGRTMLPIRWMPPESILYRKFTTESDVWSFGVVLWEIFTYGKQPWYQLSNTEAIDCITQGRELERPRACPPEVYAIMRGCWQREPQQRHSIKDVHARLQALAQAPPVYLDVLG

T1 sequence (Q16620 32-430 limits assumed): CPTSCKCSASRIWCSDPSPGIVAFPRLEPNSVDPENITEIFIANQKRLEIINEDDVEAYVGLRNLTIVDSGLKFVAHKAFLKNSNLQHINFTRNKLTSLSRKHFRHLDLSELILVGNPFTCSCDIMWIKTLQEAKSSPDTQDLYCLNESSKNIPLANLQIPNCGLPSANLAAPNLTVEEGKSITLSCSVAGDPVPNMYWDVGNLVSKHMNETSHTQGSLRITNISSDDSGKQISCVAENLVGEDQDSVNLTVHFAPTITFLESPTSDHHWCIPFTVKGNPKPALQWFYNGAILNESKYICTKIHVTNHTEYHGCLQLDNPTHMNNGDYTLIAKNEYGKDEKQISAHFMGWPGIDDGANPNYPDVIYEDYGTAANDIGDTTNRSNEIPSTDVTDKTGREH

Substance: MAAFMDNPFEFNPED-C-KLH: 多肽MAAFMDNPFEFNPED-C-KLH (SEQ ID NO:18; 钥孔血蓝蛋白(KLH)) (not fully specified (C-terminus); also: KLH carrier conjugated via C-terminal Cys)
- binding of immunised mouse serum (Human-TrKB): 没有明显结合
- binding of immunised mouse serum (Human-TrKC): 没有明显结合
- binding of immunised mouse serum (Human-P75): 没有明显结合
- Human-TrkA/Human-NGF binding signal (OD450) versus blank serum ([1]; immunised rabbit serum diluted 1:2): 显著性降低
- Human-TrkA/Human-NGF binding signal (OD450) versus blank serum ([1]; immunised rabbit serum, no dilution stated): 显著性降低
